“Also recorded” adds a separate entry of the source.
Columns and labels:
[1] = target: T1, polymerized microtubules (bovine brain tubulin) (Bos taurus, UniProt P81947+Q6B856); experiment: Microtubule depolymerization assay (centrosomes omitted); type: biochemical; settings: centrosomes absent; nocodazole 15 μM as positive control; data not shown
T1 construct: containing 125 μg bovine brain tubulin (Cytoskeleton, Denver, Colo.); purchased Cytoskeleton, Denver, Colo; host or cells: bovine brain (tissue-purified)
T1 sequence (P81947 whole entry): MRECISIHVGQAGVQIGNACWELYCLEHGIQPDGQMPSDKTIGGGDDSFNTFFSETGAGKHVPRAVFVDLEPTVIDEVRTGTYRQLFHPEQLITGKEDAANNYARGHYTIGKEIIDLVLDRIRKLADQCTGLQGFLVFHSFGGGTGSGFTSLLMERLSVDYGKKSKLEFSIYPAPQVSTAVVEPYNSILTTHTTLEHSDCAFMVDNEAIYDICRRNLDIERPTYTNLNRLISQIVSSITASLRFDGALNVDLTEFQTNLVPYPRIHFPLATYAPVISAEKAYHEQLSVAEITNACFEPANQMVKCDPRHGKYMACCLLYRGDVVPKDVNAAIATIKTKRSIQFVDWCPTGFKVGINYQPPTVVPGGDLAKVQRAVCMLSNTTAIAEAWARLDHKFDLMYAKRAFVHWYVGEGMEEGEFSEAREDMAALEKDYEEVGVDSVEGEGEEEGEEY
T1 sequence (Q6B856 whole entry): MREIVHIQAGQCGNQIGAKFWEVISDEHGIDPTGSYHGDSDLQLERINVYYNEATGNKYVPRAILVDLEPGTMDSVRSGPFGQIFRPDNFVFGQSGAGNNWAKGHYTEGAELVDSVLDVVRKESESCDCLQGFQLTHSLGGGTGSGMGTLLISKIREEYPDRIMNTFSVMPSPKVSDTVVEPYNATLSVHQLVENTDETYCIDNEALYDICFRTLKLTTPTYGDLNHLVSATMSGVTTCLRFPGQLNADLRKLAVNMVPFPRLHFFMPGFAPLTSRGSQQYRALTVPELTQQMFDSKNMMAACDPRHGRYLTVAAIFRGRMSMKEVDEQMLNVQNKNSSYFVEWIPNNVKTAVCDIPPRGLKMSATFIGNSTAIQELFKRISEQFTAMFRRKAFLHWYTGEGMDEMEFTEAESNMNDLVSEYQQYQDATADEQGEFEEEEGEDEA
Description: Microtubule Depolymerization Assay
In this assay, centrosomes are omitted from the above reaction mixtures to determine the effects of various truncated GST-CPAP proteins or synthetic peptides on microtubule polymerization in the absence of centrosomes. Polymerized microtubules were stained using FITC-conjugated anti-α-tubulin monoclonal antibodies, as above. Nocodazole (15 μM) was added to some reactions mixtures as a positive control for microtubule depolymerization.

[2] = target: T2, microtubule nucleation from purified centrosomes (bovine brain tubulin) (Bos taurus, UniProt P81947+Q6B856); experiment: In vitro centrosome-dependent microtubule nucleation assay; type: biochemical; settings: for Inhibition of microtubule nucleation/assembly from purified centrosomes (in words): in vitro
T2 construct: containing 125 μg bovine brain tubulin (Cytoskeleton, Denver, Colo.); purchased Cytoskeleton, Denver, Colo; host or cells: bovine brain (tissue-purified)
T2 sequence (P81947 whole entry): as the sequence (P81947 whole entry) above
T2 sequence (Q6B856 whole entry): as the sequence (Q6B856 whole entry) above
Description: In vitro Centrosome-Dependant Microtubule Nucleation Assay
Isolation of centrosomes and microtubule nucleation tests were performed as described (Hung et al., 2000). To investigate the effect of different GST-truncated CPAP fusion proteins on microtubule nucleation, purified centrosomes (4 μl per reaction) were pre-incubated with the various truncated GST-CPAP fusion proteins or FPLC purified synthetic peptides for 10 min at 4° C. The reaction mixtures were then incubated in 65 μl RG1 buffer (80 mM PIPES, pH 6.8, 1 mM EGTA, 1 mM MgCl2, and 1 mM GTP) containing 125 μg bovine brain tubulin (Cytoskeleton, Denver, Colo.) for 4 min at 37° C.
Microtubules present in the reaction mixtures were fixed in 200 μl 1% glutaraldehyde in RG1 buffer, sedimented onto acid-treated coverslips, and subjected to immunofluoresence analysis using anti-α-tubulin monoclonal antibodies N356 (Amersham, Piscataway, N.J.) or FITC-conjugated anti-α-tubulin monoclonal antibodies (DM1A-FITC; Sigma, Saint Louis, Mo.). Truncated GST-CPAP proteins were detected using an anti-GST polyclonal antibody (Molecular Probes, Cincinnati, Ohio). The extent of microtubule assembly in each reaction was determined microscopically by comparing the extent of microtubule formation on each coverslip. Decreased microtubule formation in reactions comprising polypeptides derived from CPAP indicated the ability of such polypeptides to inhibit centrosome-dependent microtubule assembly.

HeLa cells [3] = experiment: Flow cytometric cell cycle analysis of transfected HeLa cells; type: cell-based, human; settings: transiently transfected HeLa cells
Description: (§1) HeLa cells were maintained in DMEM supplemented with 10% fetal bovine serum. cDNA clones encoding different portions of CPAP were subcloned, in an appropriate reading frame, into the CMV promoter-driven EGFP-C1 expression vector (Clontech, Palo Alto, Calif.). Transient transfections were performed using Lipofectamine 2000 (Invitrogen, Carlsbad, Calif.) according to the manufacturer's instructions.
Transfected HeLa cells were harvested 48 hr following transfection. Both the adherent cells and non-adherent cells present in the culture supernatants were collected and subjected to centrifugation. The resulting cell pellets were resuspended in PBS then fixed in 1% formaldehyde at 4° C. for 30 min. Following fixation, the cells were collected by centrifugation, washed, and resuspended in 70% cold ethanol. The resuspended cells were either stored at −20° C. overnight or immediately used for FACS analysis.
FACS analysis was performed by collecting the fixed cells by centrifugation and resuspending the cells in DNA staining solution (100 μg/ml propidium iodide, 0.1% Triton X, and 100 μM EDTA in PBS) for 30 min at room temperature. Cell cycle analysis was performed on a FACS Calibur (Becton-Dickinson, Mountain View, Calif.) with the signal gated to measure only GFP fluorescence. Ten thousand events were acquired and the percentages of cells in G0/G1, S, and G2/M were determined using the ModfitLT software (version 2.0, Verity Software House, Inc., Topsham, Me.). The apparent accumulation of cells with two genome copies (i.e., twice the genetic material of G0/G1 cells) is indicative of cell cycle arrest after DNA synthesis but prior to mitosis.

HeLa cells [4] = experiment: Cell-based assay for CPAP activity: microtubule reassembly in cold-treated transfected HeLa cells; parameters: species or system human; settings: transiently transfected HeLa cells
Description: Cell Culture and Transfection
as §1
Cold Treatment, Immunofluorescence and Confocal Microscopy
HeLa cells were grown on coverslips for at least 24 hr. Cold treatment was performed by incubating the cells at 4° C. for 1 hr, then replacing the cold medium with medium warmed to 30° C. and incubating the cells for 2 min at 30° C. The cells were then fixed with 1% formaldehyde for 30 min at room temperature.
The fixed cells were incubated in the presence of anti-α-tubulin monoclonal antibodies (N356, Amersham, Piscataway, N.J.) and anti-γ-tubulin polyclonal antibodies (Sigma, Saint Louis, Mo.). Bound anti-α-tubulin monoclonal antibodies (N356) were detected with Alexa 568, a Texas Red-conjugated goat anti-mouse IgG, or Alexa 647, a far-red fluorophore-conjugated goat anti-mouse IgG. Bound anti-γ-tubulin polyclonal antibodies were detected with Alexa 568 (Molecular Probes Inc.). The resulting […] signals were detected using a laser scanning confocal system (MRC 1000, Bio-Rad Laboratories, Hercules, Calif.).
The effect of various polypeptides derived from CPAP was determined by evaluating the amounts of mitotic spindle formation in the transfected cells. Decreased mitotic spindle formation indicated the presence of an activity that inhibited microtubule formation or destabilized microtubules.

Bovine brain α/β tubulin = target: T3, Bovine brain α/β tubulin (Bos taurus, UniProt P81947+Q6B856); experiment: In vitro microtubule sedimentation assay; type: biochemical; settings: 15 μM tubulin; 40 μM polypeptide
T3 construct: Bovine brain α/β tubulin (15 μM; Cytoskeleton Inc., Denver, Colo.); purchased Cytoskeleton Inc., Denver, Colo; host or cells: bovine brain (tissue-purified)
T3 sequence (P81947 whole entry): as the sequence (P81947 whole entry) above
T3 sequence (Q6B856 whole entry): as the sequence (Q6B856 whole entry) above
Description: In vitro Microtubule Sedimentation Assay
Bovine brain α/β tubulin (15 μM; Cytoskeleton Inc., Denver, Colo.) was pre-incubated with various amounts of truncated GST-CPAP proteins in a 50 μl reaction mixture comprising RG1 buffer (see Example 2) for 30 min at 37° C. Tubulin polymerization was initiated by adding 50 μl GMRG buffer (RG1 buffer supplemented with 12 mM MgCl2 and 50% glycerol), then incubating the reaction mixtures at 37° C. for 1.5 hr.
The reaction mixtures were then subjected to centrifugation at 300,000×g for 15 min at 37° C., in a TL-100 ultracentrifuge (Beckman Instruments, Fullerton, Calif.). Supernatants (S) and pellets (P) were analyzed by SDS-PAGE followed by staining with Coomassie blue.
Microtubule disassembly was confirmed using the microtubule sedimentation assay. Following centrifugation of the reaction mixtures, relatively soluble tubulin monomers and small multimers are found in the supernatant, while relatively insoluble polymerized tubulin is found in the pellet. To assay the ability of PN2-3-containing polypeptides to destabilize microtubules, reactions comprising 15 μM tubulin were incubated in the presence of increasing amounts of GST-PN2-3 (1.9, 3.8, 7.5, and 15 μM) or GST-PN2-2 (15, 30, or 40 μM), or in the absence of CPAP-derived polypeptides (control; FIG. 4A).

Molecule | Disassembly of polymerized microtubules in the absence of centrosomes (in words) [1] | Inhibition of microtubule nucleation/assembly from purified centrosomes (in words) [2] | other results
GST-CM: GST fusion polypeptide corresponding to amino acid residues 132-607 of CPAP (protein, left off: a dimerising Fc or GST, GST fusion polypeptide corresponding to amino acid residues 132-607 of CPAP) EFKEGAYKDPLFKKLEQLKEVQQKKQEQLKRQQLEQLQRLMEEQEKLLTMVSGQCTLPGLSLLPDDQSQKHRSPGNTTTGERATCCFPSYVYPDPTQEETYPSNILSHEQSNFCRTAHGDFVLTSKRASPNLFSEAQYQEAPVEKNNLKEENRNHPTGESILCWEKVTEQIQEANDKNLQKHDDSSEVANIEERPIKAAIGERKQTFEDYLEEQIQLEEQELKQKQLKEAEGPLPIKAKPKQPFLKRGEGLARFTNAKSKFQKGKESKLVTNQSTSEDQPLFKMDRQQLQRKTALKNKELCADNPILKKDSKARTKSGSVTLSQKPKMLKCSNRKSLSPSGLKIQTGKKCDGQFRDQIKFENKVTSNNKENVTECPKPCDTGCTGWNKTQGKDRLPLSTGPASRLAAKSPIRETMKESESSLDVSLQKKLETWEREKEKENLELDEFLFLEQAADEISFSSNSSFVLKILERDQQI | disassembled | inhibited | 
GST-PN2-3: GST fusion polypeptide corresponding to residues 311-422 of CPAP (protein, left off: a dimerising Fc or GST, GST fusion polypeptide corresponding to residues 311-422 of CPAP) QKHDDSSEVANIEERPIKAAIGERKQTFEDYLEEQIQLEEQELKQKQLKEAEGPLPIKAKPKQPFLKRGEGLARFTNAKSKFQKGKESKLVTNQSTSEDQPLFKMDRQQLQR | disassembled | possessed the ability to inhibit microtubule assembly; also recorded: greatest level of inhibition | 
GFP-PN2-3: GFP-tagged CPAP residues 311-422, expressed from a transfected vector (protein, UniProt Q9HC77 311-422, looked up, fragment, GFP tag, GFP-tagged CPAP residues 311-422, expressed from a transfected vector) QKHDDSSEVANIEERPIKAAIGERKQTFEDYLEEQIQLEEQELKQKQLKEAEGPLPIKAKPKQPFLKRGEGLARFTNAKSKFQKGKESKLVTNQSTSEDQPLFKMDRQQLQR |  |  | Cell cycle distribution by DNA content (in words) (HeLa cells [3]; propidium iodide, GFP-gated): progressive accumulation in G2/M; Cell morphology (in words) (HeLa cells [3]; data not shown): change in morphology (to round cells); Cell proliferation (in words) (HeLa cells [3]; data not shown): stopped proliferating; Inhibition of microtubule reassembly in cold-treated mitotic cells (in words) (HeLa cells [4]): significantly inhibited microtubule reassembly
peptide M: synthetic peptide, amino acid residues 320-390 of CPAP (SEQ ID NO:1) (peptide, listed as Homo sapiens) ANIEERPIKAAIGERKQTFEDYLEEQIQLEEQELKQKQLKEAEGPLPIKAKPKQPFLKRGEGLARFTNAKS | disassembled |  | Effect of synthetic peptide on centrosome-dependent microtubule nucleation (in words) ([2]; 20 μM or 40 μM peptide): inhibited centrosome-dependent microtubule nucleation in a dose dependent manner
GST-PN2-2: GST fusion polypeptide with sub-region PN2-2 of PN2 (CPAP residues 191-310 per b157) (protein, left off: a dimerising Fc or GST) LSLLPDDQSQKHRSPGNTTTGERATCCFPSYVYPDPTQEETYPSNILSHEQSNFCRTAHGDFVLTSKRASPNLFSEAQYQEAPVEKNNLKEENRNHPTGESILCWEKVTEQIQEANDKNL | no such effect |  | Distribution of tubulin in the supernatant and pellet (in words) (Bovine brain α/β tubulin): little effect
